In paper PMC3010076 (The Journal of Cell Biology, 2010):

B1: MBP-Myo1-tail-TD2Δ (domain or fragment, S. cerevisiae, UniProt P08964 856-1928, looked up)
chain: SSNDMTRTKKFNEQINKLKNDLQEMESKKKFLEEKNQKTVNELENTQDLLNQEKENLRKNESLLNRVKTSSETLQKQFDDLVSEKDEISREKLEVAQNLEEAHQKIQGLQETIREREATLEKLHSKNNELIKQISDLNCDISKEQSSQSLIKESKLKLENEIKRLKDVINSKEEEIKSFNDKLSSSEEDLDIKLVTLEKNCNIAMSRLQSLVTENSDLRSKNENFKKEKAALNNQLKNKESELLKMKEKIDNHKKELATFSKQRDDAVSEHGKITAELKETRIQLTEYKSNYQKIKEEYSNFQRETKEQEQKKRNSLVESLNDSKIKELEARLSQEISLNQYLNKRISGNSVETNISSTRRSTSYSDDVGDIIKNRDSISKYEEEIRYYKLENYKLQEILNESNGKLSQLTLDLRQSKSKEALLSEQLDRLQKDLESTERQKELLSSTIKQQKQQFENCMDDLQGNELRLREHIHALKQAEEDVKNMASIIEKLKTQNKQKEKLIWEREMERNDSDMQLQETLLELKRVQDVKKILSDDLAHLKERLSAVEDRSQYTDEINRLKEELNCSLKAETNLKKEFATLKYKLETSTNDSEAKISDLLKQLDHYTKVVEMLNNEKDAISLAEKELYQKYEALNTECESLKGKIVSLTKIKQELESDLNQKTDALQISNAALSSSTQKNKEITEKIKYLEETLQLQMEQNSRNGELVKTLQASCNGYKDKFDDEKQKNIDLYEENQTLQKLNTDLQLQLKNLHERLSDTTEKNAWLSKIHELENMVSLETDLKYEEMKKNKSLERAVEELQTKNSQQTDVIELANKNRSEFEEATLKYEAQISDLEKYISQQELEMKKSIRDNSSYRDKVQEMAQEIEFWKSRYESTMIGSKNIDSNNAQSKIFS
B2: C-terminally TAP-tagged full-length Myo1 (natural protein, S. cerevisiae, UniProt P08964 1-1928, looked up)
chain: MTGGQSCSSNMIVWIPDEKEVFVKGELMSTDINKNKFTGQEEQIGIVHPLDSTEVSNLVQVRISDVFPVNPSTFDKVENMSELTHLNEPSVLYNLEKRYDCDLIYTYSGLFLVAINPYHNLNLYSEDHINLYHNKHNRLSKSRLDENSHEKLPPHIFAIAEEAYENLLSEGKDQSILVTGESGAGKTENTKKILQYLASITSGSPSNIAPVSGSSIVESFEMKILQSNPILESFGNAQTVRNNNSSRFGKFIKIEFNEHGMINGAHIEWYLLEKSRIVHQNSKERNYHIFYQLLSGLDDSELKNLRLKSRNVKDYKILSNSNQDIIPGINDVENFKELLSALNIIGFSKDQIRWIFQVVAIILLIGNIEFVSDRAEQASFKNDVSAICSNLGVDEKDFQTAILRPRSKAGKEWVSQSKNSQQAKFILNALSRNLYERLFGYIVDMINKNLDHGSATLNYIGLLDIAGFEIFENNSFEQLCINYTNEKLQQFFNNHMFVLEQSEYLKENIQWDYIDYGKDLQLTIDLIESKGPPTGVLPLLDEEAVLPKSTDESFYSKLISTWDQNSSKFKRSRLKNGFILKHYAGDVEYTVEGWLSKNKDPLNDNLLSLLSSSQNDIISKLFQPEGEKSSSAGVEANISNQEVKKSARTSTFKTTSSRHREQQITLLNQLASTHPHFVRCIIPNNVKKVKTFNRRLILDQLRCNGVLEGIRLAREGYPNRIAFQEFFQRYRILYPENSTTTTFSSKLKASTKQNCEFLLTSLQLDTKVYKIGNTKLFFKAGVLADLEKQKDVKLNNIMIKLTATIRGYTVRKEITYHLQKLKKTRVIGNTFRLYNRLVKEDPWFNLFIRIKPLLTSSNDMTRTKKFNEQINKLKNDLQEMESKKKFLEEKNQKTVNELENTQDLLNQEKENLRKNESLLNRVKTSSETLQKQFDDLVSEKDEISREKLEVAQNLEEAHQKIQGLQETIREREATLEKLHSKNNELIKQISDLNCDISKEQSSQSLIKESKLKLENEIKRLKDVINSKEEEIKSFNDKLSSSEEDLDIKLVTLEKNCNIAMSRLQSLVTENSDLRSKNENFKKEKAALNNQLKNKESELLKMKEKIDNHKKELATFSKQRDDAVSEHGKITAELKETRIQLTEYKSNYQKIKEEYSNFQRETKEQEQKKRNSLVESLNDSKIKELEARLSQEISLNQYLNKRISGNSVETNISSTRRSTSYSDDPLDKEDIIKKYYDLQLAFTEITRNLENEIEEKKNLISRLRFTETRLASSSFEDQKIKAQMKKLKKLIQDMDPSIPLDSILNEPLDNCPDKESDINKLMLEVDYLKRQLDIETRAHYDAENAISALHSKFRKIQGESSLSSSDIYKLKFEASEERVKSLEDKLKTMPLRDRTNLPVGDIIKNRDSISKYEEEIRYYKLENYKLQEILNESNGKLSQLTLDLRQSKSKEALLSEQLDRLQKDLESTERQKELLSSTIKQQKQQFENCMDDLQGNELRLREHIHALKQAEEDVKNMASIIEKLKTQNKQKEKLIWEREMERNDSDMQLQETLLELKRVQDVKKILSDDLAHLKERLSAVEDRSQYTDEINRLKEELNCSLKAETNLKKEFATLKYKLETSTNDSEAKISDLLKQLDHYTKVVEMLNNEKDAISLAEKELYQKYEALNTECESLKGKIVSLTKIKQELESDLNQKTDALQISNAALSSSTQKNKEITEKIKYLEETLQLQMEQNSRNGELVKTLQASCNGYKDKFDDEKQKNIDLYEENQTLQKLNTDLQLQLKNLHERLSDTTEKNAWLSKIHELENMVSLETDLKYEEMKKNKSLERAVEELQTKNSQQTDVIELANKNRSEFEEATLKYEAQISDLEKYISQQELEMKKSIRDNSSYRDKVQEMAQEIEFWKSRYESTMIGSKNIDSNNAQSKIFS
B3: C-terminally TAP-tagged Myo1 with a deletion of the TD2 region (natural protein, S. cerevisiae, UniProt P08964 1-1928, looked up)
chain: MTGGQSCSSNMIVWIPDEKEVFVKGELMSTDINKNKFTGQEEQIGIVHPLDSTEVSNLVQVRISDVFPVNPSTFDKVENMSELTHLNEPSVLYNLEKRYDCDLIYTYSGLFLVAINPYHNLNLYSEDHINLYHNKHNRLSKSRLDENSHEKLPPHIFAIAEEAYENLLSEGKDQSILVTGESGAGKTENTKKILQYLASITSGSPSNIAPVSGSSIVESFEMKILQSNPILESFGNAQTVRNNNSSRFGKFIKIEFNEHGMINGAHIEWYLLEKSRIVHQNSKERNYHIFYQLLSGLDDSELKNLRLKSRNVKDYKILSNSNQDIIPGINDVENFKELLSALNIIGFSKDQIRWIFQVVAIILLIGNIEFVSDRAEQASFKNDVSAICSNLGVDEKDFQTAILRPRSKAGKEWVSQSKNSQQAKFILNALSRNLYERLFGYIVDMINKNLDHGSATLNYIGLLDIAGFEIFENNSFEQLCINYTNEKLQQFFNNHMFVLEQSEYLKENIQWDYIDYGKDLQLTIDLIESKGPPTGVLPLLDEEAVLPKSTDESFYSKLISTWDQNSSKFKRSRLKNGFILKHYAGDVEYTVEGWLSKNKDPLNDNLLSLLSSSQNDIISKLFQPEGEKSSSAGVEANISNQEVKKSARTSTFKTTSSRHREQQITLLNQLASTHPHFVRCIIPNNVKKVKTFNRRLILDQLRCNGVLEGIRLAREGYPNRIAFQEFFQRYRILYPENSTTTTFSSKLKASTKQNCEFLLTSLQLDTKVYKIGNTKLFFKAGVLADLEKQKDVKLNNIMIKLTATIRGYTVRKEITYHLQKLKKTRVIGNTFRLYNRLVKEDPWFNLFIRIKPLLTSSNDMTRTKKFNEQINKLKNDLQEMESKKKFLEEKNQKTVNELENTQDLLNQEKENLRKNESLLNRVKTSSETLQKQFDDLVSEKDEISREKLEVAQNLEEAHQKIQGLQETIREREATLEKLHSKNNELIKQISDLNCDISKEQSSQSLIKESKLKLENEIKRLKDVINSKEEEIKSFNDKLSSSEEDLDIKLVTLEKNCNIAMSRLQSLVTENSDLRSKNENFKKEKAALNNQLKNKESELLKMKEKIDNHKKELATFSKQRDDAVSEHGKITAELKETRIQLTEYKSNYQKIKEEYSNFQRETKEQEQKKRNSLVESLNDSKIKELEARLSQEISLNQYLNKRISGNSVETNISSTRRSTSYSDDVGDIIKNRDSISKYEEEIRYYKLENYKLQEILNESNGKLSQLTLDLRQSKSKEALLSEQLDRLQKDLESTERQKELLSSTIKQQKQQFENCMDDLQGNELRLREHIHALKQAEEDVKNMASIIEKLKTQNKQKEKLIWEREMERNDSDMQLQETLLELKRVQDVKKILSDDLAHLKERLSAVEDRSQYTDEINRLKEELNCSLKAETNLKKEFATLKYKLETSTNDSEAKISDLLKQLDHYTKVVEMLNNEKDAISLAEKELYQKYEALNTECESLKGKIVSLTKIKQELESDLNQKTDALQISNAALSSSTQKNKEITEKIKYLEETLQLQMEQNSRNGELVKTLQASCNGYKDKFDDEKQKNIDLYEENQTLQKLNTDLQLQLKNLHERLSDTTEKNAWLSKIHELENMVSLETDLKYEEMKKNKSLERAVEELQTKNSQQTDVIELANKNRSEFEEATLKYEAQISDLEKYISQQELEMKKSIRDNSSYRDKVQEMAQEIEFWKSRYESTMIGSKNIDSNNAQSKIFS

Molecular target: the molecule itself
Assay: rotary-shadowing EM

Protein	stoichiometry N
B1	2
B2	2
B3	2
